{
  "source": "patent US20250325640A1",
  "biological_target": "CD20 on Daudi cells (UniProt P11836)",
  "assay": "cell-based or functional assay",
  "data": [
    {"substance": "Rituximab (anti-CD20 IgG, Mabthera) (antibody)", "values": [
      {"measurement": "complement-dependent cytotoxicity (CCK8 cell survival, baby rabbit serum) (% of cells dead)", "result": 70}
    ]}
  ]
}
